Assay results published in publication PMC5095173, “Disulfide-activated protein kinase G Iα regulates cardiac diastolic relaxation and fine-tunes the Frank–Starling response” (Nature Communications, 2016).

Tests used:
C42S PKGIα (human) = test: ITC; PLN (1–23) (700 μM) titrated into the cell containing WT disulfide PKGIα or the C42S mutant (70 μM); 25 °C; 50 mM sodium phosphate buffer pH 7.4, 100 mM NaCl; no cyclic nucleotide
[1] = target: PKGIα (WT mouse heart) (mouse (endogenous in mouse heart)) (UniProt P0C605); test: cross-linking; intermolecular disulfide dimer of PKGIα in perfused mouse hearts (0 or 5 mm Hg EDP), homogenised with 100 mM maleimide, SDS-PAGE without reducing agent and immunoblot
[2] = target: Cardiac phospholamban (rat heart homogenate) (rat (endogenous in rat left ventricle)) (UniProt P61016)
[3] = target: PKGIα M438G (analogue-sensitive mutant), disulfide dimer (human); test: cross-linking; intermolecular Cys42 disulfide of purified recombinant PKGIα (lipoic acid or air oxidation) seen as dimer by SDS-PAGE

Chain of N-terminally acetylated peptide of the N-terminal cytoplasmic domain of human phospholamban, PLN (amino acid 1-23) (P26678 1-23): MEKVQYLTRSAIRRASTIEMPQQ
Chain of Cardiac phospholamban (rat heart homogenate) (rat (endogenous in rat left ventricle)) (P61016 whole entry): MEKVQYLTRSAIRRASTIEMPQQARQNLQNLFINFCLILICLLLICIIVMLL
Chain of PKGIα (WT mouse heart) (P0C605 2-671): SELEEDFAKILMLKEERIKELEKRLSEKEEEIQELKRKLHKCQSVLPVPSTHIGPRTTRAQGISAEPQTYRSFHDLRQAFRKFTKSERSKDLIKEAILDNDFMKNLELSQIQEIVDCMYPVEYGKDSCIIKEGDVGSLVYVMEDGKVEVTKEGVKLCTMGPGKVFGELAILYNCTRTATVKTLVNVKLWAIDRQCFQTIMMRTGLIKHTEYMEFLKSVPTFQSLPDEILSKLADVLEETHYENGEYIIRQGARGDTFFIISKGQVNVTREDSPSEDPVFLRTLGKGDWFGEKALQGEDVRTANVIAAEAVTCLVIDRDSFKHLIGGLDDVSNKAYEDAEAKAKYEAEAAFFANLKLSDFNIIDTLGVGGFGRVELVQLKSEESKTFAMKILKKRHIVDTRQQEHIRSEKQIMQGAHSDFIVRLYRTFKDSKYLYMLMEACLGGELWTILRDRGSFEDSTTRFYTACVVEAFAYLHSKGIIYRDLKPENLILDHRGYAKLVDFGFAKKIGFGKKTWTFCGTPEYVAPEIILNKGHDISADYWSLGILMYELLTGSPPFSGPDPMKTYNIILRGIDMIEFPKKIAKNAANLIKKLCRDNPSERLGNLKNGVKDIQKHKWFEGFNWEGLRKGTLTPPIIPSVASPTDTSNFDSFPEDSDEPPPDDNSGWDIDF

Substance: N-terminally acetylated peptide of the N-terminal cytoplasmic domain of human phospholamban, PLN (amino acid 1-23) (from UniProt P26678 1-23)
- fold change of Kd against WT PKGIα disulfide dimer (C42S PKGIα (human)): > 5 fold

Substance: PKGIα (WT mouse heart) (from UniProt P0C605 1-671) (enzyme)
- stoichiometry N [1]: 2

Substance: PKGIα M438G (analogue-sensitive mutant), disulfide dimer (enzyme)
- log2 fold change in abundance of the PLN pSer16 phosphopeptide (thiophosphorylation in rat heart homogenate), disulfide-activated PKGIα M438G versus basal PKGIα C42S/M438G control (log2 fold change) [2]: 0.41
- stoichiometry N [3]: 2
